In publication PMC3047542, “Structure of HsdS Subunit from Thermoanaerobacter tengcongensis Sheds Lights on Mechanism of Dynamic Opening and Closing of Type I Methyltransferase” (PLoS ONE, 2011):

Molecular target: T1, TTE-HsdS (wild type), specificity subunit of the type I methyltransferase from Thermoanaerobacter … (Thermoanaerobacter tengcongensis, UniProt Q8R9Q6 1-398)
T1 construct: HsdS specificity subunit of Thermoanaerobacter tengcongensis, ORF TTE1545, wild type; 398 amino acids (Met1-Leu398), MW 46.5 kDa; Cloned into site 1 of pET-DUET (with N-terminal His tag); source: E. coli BL21 (DE3), co-expressed with TTE-HsdM (wild type or mutant) from pET-DUET; not shown: His tag, N-terminal, kept
T1 sequence (looked up): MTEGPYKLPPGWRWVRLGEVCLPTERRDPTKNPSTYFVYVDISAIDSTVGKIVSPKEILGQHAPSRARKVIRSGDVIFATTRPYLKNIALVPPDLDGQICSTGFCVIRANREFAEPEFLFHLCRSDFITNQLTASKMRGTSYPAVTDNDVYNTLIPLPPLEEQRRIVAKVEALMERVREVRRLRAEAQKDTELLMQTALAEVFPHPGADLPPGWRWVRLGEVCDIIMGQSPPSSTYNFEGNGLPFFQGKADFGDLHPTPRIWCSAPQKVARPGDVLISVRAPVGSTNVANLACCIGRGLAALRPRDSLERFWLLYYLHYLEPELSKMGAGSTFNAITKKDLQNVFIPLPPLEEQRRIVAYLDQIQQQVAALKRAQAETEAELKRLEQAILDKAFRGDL
Experiment: AUC; analytical ultracentrifugation of the co-purified wild-type TTE-HsdS/TTE-HsdM complex; molecular weight 165 kDa
Settings: both partners purified

B1: TTE-HsdM (wild type), modification subunit of the type I methyltransferase from Thermoanaerobacter tengcongensis (natural protein, UniProt Q8R9Q4 1-507, looked up)
chain: MNGPQTRESLANEIWRACDIMRRDNNCTGIMEYVEHLAWLLFLRFLDAQEEEWEAQAQIAGRPYTPIIDSEYRWRHWATKDWPADELLAFVHGRLIPYLRSLGGDPLRETIRSLFSERNVIVCASGYNLKDVIQIVNEINFHSQDDIFTVSQVYEELLRRLGNENRLAGEFYTPRPVVRFVVELVDPQIGEAVYDPACGTCGFLVEAYLWMKQKERTIEDHRILQERTFFGQEKKPVPAFLGLVNMMLHGVTVPRVMRRNTLEENIRNVSERFDVVVTNPPFGGTEGRHIQQNFPIQSNATELLFLQHIMKKLKPRDGARCGMVVPEGTLFRGGAFAEVKRDLLEQFNLHTVVSLPPGTFAPYSDVKTALIFFERPGPTKEIWYYELPLPEGLKKFSKGNPIQDEHFEEARKLWRGWDAYRKGLGPVEACLSERSWIVPVEEVKKRGYDLTARNPNRSGGEELPSPVEIVAGLLEKEREILSIMEELSELLENEKGNSSRKNDEEEE
notes: HsdM modification subunit of Thermoanaerobacter tengcongensis, ORF TTE1547, wild type; MW 58.5 kDa; Cloning site 2 of pET-DUET, without tag; Two copies in the M2S1 complex; Expressed alone it was insoluble
- stoichiometry N: 2 HsdM per HsdS
